The results in this text go back to IntAct's records for PubMed 29039417.

Sequences and labels used below:
B1: Protein PTHB1 (Homo sapiens), Q3SYG4 (parent)
chain: MSLFKARDWWSTILGDKEEFDQGCLCLANVDNSGNGQDKIIVGSFMGYLRIFSPHPAKTGDGAQAEDLLLEVDLRDPVLQVEVGKFVSGTEMLHLAVLHSRKLCVYSVSGTLGNVEHGNQCQMKLMYEHNLQRTACNMTYGSFGGVKGRDLICIQSMDGMLMVFEQESYAFGRFLPGFLLPGPLAYSSRTDSFLTVSSCQQVESYKYQVLAFATDADKRQETEQQKLGSGKRLVVDWTLNIGEQALDICIVSFNQSASSVFVLGERNFFCLKDNGQIRFMKKLDWSPSCFLPYCSVSEGTINTLIGNHNNMLHIYQDVTLKWATQLPHIPVAVRVGCLHDLKGVIVTLSDDGHLQCSYLGTDPSLFQAPNVQSRELNYDELDVEMKELQKIIKDVNKSQGVWPMTEREDDLNVSVVVSPNFDSVSQATDVEVGTDLVPSVTVKVTLQNRVILQKAKLSVYVQPPLELTCDQFTFEFMTPDLTRTVSFSVYLKRSYTPSELEGNAVVSYSRPTDRNPDGIPRVIQCKFRLPLKLICLPGQPSKTASHKITIDTNKSPVSLLSLFPGFASQSDDDQVNVMGFHFLGGARITVLASKTSQRYRIQSEQFEDLWLITNELILRLQEYFEKQGVKDFACSFSGSIPLQEYFELIDHHFELRINGEKLEELLSERAVQFRAIQRRLLARFKDKTPAPLQHLDTLLDGTYKQVIALADAVEENQGNLFQSFTRLKSATHLVILLIALWQKLSADQVAILEAAFLPLQEDTQELGWEETVDAAISHLLKTCLSKSSKEQALNLNSQLNIPKDTSQLKKHITLLCDRLSKGGRLCLSTDAAAPQTMVMPGGCTTIPESDLEERSVEQDSTELFTNHRHLTAETPRPEVSPLQGVSE
partner: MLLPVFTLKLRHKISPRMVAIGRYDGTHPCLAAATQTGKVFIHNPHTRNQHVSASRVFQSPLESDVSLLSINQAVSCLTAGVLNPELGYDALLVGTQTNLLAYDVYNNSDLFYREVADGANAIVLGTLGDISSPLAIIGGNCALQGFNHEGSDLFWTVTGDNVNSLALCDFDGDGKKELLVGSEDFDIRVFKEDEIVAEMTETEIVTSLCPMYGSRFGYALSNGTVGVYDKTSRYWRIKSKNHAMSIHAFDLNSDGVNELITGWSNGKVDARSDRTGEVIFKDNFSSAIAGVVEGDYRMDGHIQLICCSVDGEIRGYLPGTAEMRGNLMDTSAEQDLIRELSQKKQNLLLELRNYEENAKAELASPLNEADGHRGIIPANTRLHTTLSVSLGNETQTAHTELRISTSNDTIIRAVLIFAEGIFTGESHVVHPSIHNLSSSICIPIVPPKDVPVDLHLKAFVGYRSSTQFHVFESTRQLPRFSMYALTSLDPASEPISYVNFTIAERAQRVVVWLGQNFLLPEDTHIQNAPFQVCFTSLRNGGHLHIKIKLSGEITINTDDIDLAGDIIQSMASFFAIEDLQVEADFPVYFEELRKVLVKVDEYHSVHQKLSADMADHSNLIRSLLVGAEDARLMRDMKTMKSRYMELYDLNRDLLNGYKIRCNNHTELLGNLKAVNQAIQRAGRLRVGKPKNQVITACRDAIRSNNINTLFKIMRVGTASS

In this experiment the parent is B1. Particulars: with bbs2_human BBS2, Q9BXC9.
Regarding G502A, the “effect of a mutation on the interaction” value is on record as “with no effect”. As for F476K, the entry is “with no effect”. As for F476A, the entry is “with no effect”; as for F476E, “with no effect”. In the case of Y495A, the “effect of a mutation on the interaction” value is listed as “with no effect”. As for Y495E, the entry is “with no effect”; as for Y495K, “with no effect”; as for S488A, “with no effect”.

Turning to S488E, the “effect of a mutation on the interaction” value was “with no effect”.

Regarding S488K, the “effect of a mutation on the interaction” value is recorded as “with no effect”. As for D470K, the entry is “with no effect”; as for D470A, “with no effect”; as for D470E, “with no effect”. In the case of D470N, the “effect of a mutation on the interaction” value was “disrupting interaction strength”. As for T478E, the entry is “with no effect”; as for T478I, “disrupting interaction strength”.

Regarding T478A, the “effect of a mutation on the interaction” value is “with no effect”. Then T478K, with “with no effect”. With V485E, the “effect of a mutation on the interaction” value was “with no effect”.

Take V485K: the “effect of a mutation on the interaction” value was “with no effect”. In the case of V485A, the “effect of a mutation on the interaction” value was “with no effect”. Then E501K, with “with no effect”; and E501A, with “with no effect”; and C469E, with “with no effect”. As for C469K, the entry is “with no effect”.

Turning to C469A, the “effect of a mutation on the interaction” value is recorded as “with no effect”. For the variant R514E, the “effect of a mutation on the interaction” value is given as “with no effect”.

As to R514K, the “effect of a mutation on the interaction” value is recorded as “with no effect”. As for R514A, the entry is “with no effect”; as for K492A, “with no effect”. In the case of K492E, the “effect of a mutation on the interaction” value is on record as “with no effect”. Turning to P511A, the “effect of a mutation on the interaction” value is “with no effect”. As for P511E, the entry is “with no effect”. As for P511K, the entry is “with no effect”; as for L465A, “with no effect”. L465K: the “effect of a mutation on the interaction” value is listed as “with no effect”.

L465E: the “effect of a mutation on the interaction” value is “with no effect”. Then S486K, with “with no effect”. Turning to S486N, the “effect of a mutation on the interaction” value is recorded as “disrupting interaction strength”.

As to S486R, the “effect of a mutation on the interaction” value was “disrupting interaction strength”. Then S486E, with “with no effect”; and S486A, with “with no effect”. As for E475K, the entry is “with no effect”. Then E475A, with “with no effect”; and Y490A, with “with no effect”. With Y490K, the “effect of a mutation on the interaction” value is given as “with no effect”. Then Y490E, with “with no effect”; and L467A, with “with no effect”; and L467K, with “with no effect”.

On to L467E, for which the “effect of a mutation on the interaction” value was “with no effect”. Consider I519E, for which the “effect of a mutation on the interaction” value is reported as “with no effect”.

I519A: the “effect of a mutation on the interaction” value is given as “with no effect”. With I519K, the “effect of a mutation on the interaction” value was “with no effect”. Then A504K, with “with no effect”.

As to A504E, the “effect of a mutation on the interaction” value is “with no effect”. For F472A, the “effect of a mutation on the interaction” value is “with no effect”.

F472E: the “effect of a mutation on the interaction” value is recorded as “with no effect”. As for F472K, the entry is “with no effect”; as for E499A, “with no effect”; as for E499K, “with no effect”. Then L500A, with “with no effect”. For the variant L500K, the “effect of a mutation on the interaction” value is “with no effect”. L500E: the “effect of a mutation on the interaction” value is listed as “with no effect”. Then F487K, with “with no effect”; and F487A, with “with no effect”; and F487E, with “with no effect”.

As for Y460A, the “effect of a mutation on the interaction” value is reported as “with no effect”. Then Y460K, with “with no effect”.

Take Y460E: the “effect of a mutation on the interaction” value was “with no effect”.

Consider Q471A, for which the “effect of a mutation on the interaction” value is given as “with no effect”. Q471K: the “effect of a mutation on the interaction” value is on record as “with no effect”.

Consider Q471E, for which the “effect of a mutation on the interaction” value is “with no effect”. As for N503E, the entry is “with no effect”. As for N503A, the entry is “with no effect”; as for N503K, “with no effect”; as for T482E, “with no effect”. As for T482K, the entry is “with no effect”. Take T482A: the “effect of a mutation on the interaction” value is reported as “with no effect”. As for P520E, the entry is “with no effect”; as for P520A, “with no effect”. As for L481A, the “effect of a mutation on the interaction” value is given as “with no effect”.

Regarding L481E, the “effect of a mutation on the interaction” value is listed as “with no effect”. As for L481K, the entry is “with no effect”; as for T484E, “with no effect”; as for T484A, “with no effect”. Then T484K, with “with no effect”; and R510E, with “with no effect”; and R510K, with “with no effect”.

As to R510A, the “effect of a mutation on the interaction” value is on record as “with no effect”.

For L491A, the “effect of a mutation on the interaction” value is on record as “with no effect”.

Take L491E: the “effect of a mutation on the interaction” value is on record as “with no effect”. In the case of L491K, the “effect of a mutation on the interaction” value is recorded as “with no effect”.
